The text below walks through data of PMC2795169, “The Influence of Recombinant Production on the Immunologic Behavior of Birch Pollen Isoallergens” (PLoS ONE, 2009).

As usually defined, the Kd is the equilibrium constant for the complex coming apart. A higher Kd goes with weaker binding. The stoichiometry N is the number of molecules, sites or subunits per partner or assembly.

The target in one data set is T1, Bet v 1.0401 (Betula pendula, UniProt P43177).
T1 construct: gene BETV1D; full-length non-fusion protein, no tag, pET28b (Nco I/Eco RI), E. coli BL21 Star (DE3), codon-optimized gene, batch B purified without denaturation
T1 sequence (P43177 2-160): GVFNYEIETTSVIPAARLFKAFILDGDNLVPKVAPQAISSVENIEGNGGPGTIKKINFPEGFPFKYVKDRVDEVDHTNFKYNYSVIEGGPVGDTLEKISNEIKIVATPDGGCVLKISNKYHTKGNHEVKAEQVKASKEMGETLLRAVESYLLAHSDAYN
The data set is described as follows: ANS fluorescence titration, nonlinear regression. The format is binding.

A further data set addresses P43177. Kind of data set: dynamic light scattering; DLS in aqueous solution at a concentration of 1 mg/ml. The conditions noted are these: other: dynamic light scattering.
In data set [1] the target is Recombinant Bet v 1.0401 production batch A (birch) (UniProt P43177). Kind of data set: SEC-MALS; online HPSEC-light scattering (refractive index and right-angle light scattering), 0.5 ml/min, 0.1 M sodium phosphate pH 6.5, 150 mM sodium chloride. (Size exclusion chromatography separates by hydrodynamic size, large species first.)

Consider `O=S(=O)(O)c1cccc2cccc(Nc3ccccc3)c12` [8-anilino-1-naphtalenesulfonic acid], for which, at Bet v 1.0401, binding was put at a Kd of 21.2 µM.

B1: Recombinant Bet v 1.0401 production batch A (protein)
chain: MGVFNYEIETTSVIPAARLFKAFILDGDNLVPKVAPQAISSVENIEGNGGPGTIKKINFPEGFPFKYVKDRVDEVDHTNFKYNYSVIEGGPVGDTLEKISNEIKIVATPDGGCVLKISNKYHTKGNHEVKAEQVKASKEMGETLLRAVESYLLAHSDAYN
On to B1, for which the “percent of the protein as aggregates (RH 16 nm) by DLS” value in the data set with P43177 is on record as 34% RH of 16±8 nm. In data set [1], the percent of the protein as multimers of more than 2,000 kDa was found to be 2%, the percent of the protein as small oligomers of 70–80 kDa turned out to be 12% and the stoichiometry N is 4.
